Laboratory results as given in US20200246484.

Tested on: MMP-responsive peptide (P3), cleavable 'L' form, conjugated to PEG (2, 5 or 10 kD) and attached directly to 13-nm Au nanoparticle SNAs

## MMP-9
  MMP9-mediated cleavage kinetics (fluorescence on release of the N-terminal fluorophore from the Au surface): decrease in cleavage rates for 5 kD and 10 kD PEG compared to 2 kD PEG
